One block for each binder: values may come before it.
What was measured:
[1] = molecular target: Chaetomium thermophilum Nup188, full-length (Chaetomium thermophilum, UniProt G0SFH5 1-1858); experiment: ITC
[2] = molecular target: Chaetomium thermophilum Nup192, full-length (Chaetomium thermophilum, UniProt G0S4T0 1-1756); experiment: ITC
human NUP93^SOL = molecular target: T1, human NUP93^SOL (human, UniProt Q8N1F7 174-819); experiment: SEC
T1 sequence: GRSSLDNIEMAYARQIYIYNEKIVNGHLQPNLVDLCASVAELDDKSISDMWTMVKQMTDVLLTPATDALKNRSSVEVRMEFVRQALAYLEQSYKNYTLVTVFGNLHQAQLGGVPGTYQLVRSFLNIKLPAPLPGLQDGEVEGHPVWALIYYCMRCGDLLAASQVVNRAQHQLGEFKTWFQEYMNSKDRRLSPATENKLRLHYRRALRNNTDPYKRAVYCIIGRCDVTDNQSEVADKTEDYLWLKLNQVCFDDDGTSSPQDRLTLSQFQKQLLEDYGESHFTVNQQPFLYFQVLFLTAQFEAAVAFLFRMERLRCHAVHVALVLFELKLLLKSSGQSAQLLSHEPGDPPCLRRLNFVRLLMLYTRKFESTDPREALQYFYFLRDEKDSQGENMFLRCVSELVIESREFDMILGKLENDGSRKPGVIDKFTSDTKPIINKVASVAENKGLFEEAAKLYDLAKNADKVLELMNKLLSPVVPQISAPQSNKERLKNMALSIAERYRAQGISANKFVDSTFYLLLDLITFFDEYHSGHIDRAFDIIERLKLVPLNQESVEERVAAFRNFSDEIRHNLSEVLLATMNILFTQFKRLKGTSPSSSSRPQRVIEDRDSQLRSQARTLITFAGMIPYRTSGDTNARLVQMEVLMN

Chain of Chaetomium thermophilum Nup192, full-length (G0S4T0 whole entry): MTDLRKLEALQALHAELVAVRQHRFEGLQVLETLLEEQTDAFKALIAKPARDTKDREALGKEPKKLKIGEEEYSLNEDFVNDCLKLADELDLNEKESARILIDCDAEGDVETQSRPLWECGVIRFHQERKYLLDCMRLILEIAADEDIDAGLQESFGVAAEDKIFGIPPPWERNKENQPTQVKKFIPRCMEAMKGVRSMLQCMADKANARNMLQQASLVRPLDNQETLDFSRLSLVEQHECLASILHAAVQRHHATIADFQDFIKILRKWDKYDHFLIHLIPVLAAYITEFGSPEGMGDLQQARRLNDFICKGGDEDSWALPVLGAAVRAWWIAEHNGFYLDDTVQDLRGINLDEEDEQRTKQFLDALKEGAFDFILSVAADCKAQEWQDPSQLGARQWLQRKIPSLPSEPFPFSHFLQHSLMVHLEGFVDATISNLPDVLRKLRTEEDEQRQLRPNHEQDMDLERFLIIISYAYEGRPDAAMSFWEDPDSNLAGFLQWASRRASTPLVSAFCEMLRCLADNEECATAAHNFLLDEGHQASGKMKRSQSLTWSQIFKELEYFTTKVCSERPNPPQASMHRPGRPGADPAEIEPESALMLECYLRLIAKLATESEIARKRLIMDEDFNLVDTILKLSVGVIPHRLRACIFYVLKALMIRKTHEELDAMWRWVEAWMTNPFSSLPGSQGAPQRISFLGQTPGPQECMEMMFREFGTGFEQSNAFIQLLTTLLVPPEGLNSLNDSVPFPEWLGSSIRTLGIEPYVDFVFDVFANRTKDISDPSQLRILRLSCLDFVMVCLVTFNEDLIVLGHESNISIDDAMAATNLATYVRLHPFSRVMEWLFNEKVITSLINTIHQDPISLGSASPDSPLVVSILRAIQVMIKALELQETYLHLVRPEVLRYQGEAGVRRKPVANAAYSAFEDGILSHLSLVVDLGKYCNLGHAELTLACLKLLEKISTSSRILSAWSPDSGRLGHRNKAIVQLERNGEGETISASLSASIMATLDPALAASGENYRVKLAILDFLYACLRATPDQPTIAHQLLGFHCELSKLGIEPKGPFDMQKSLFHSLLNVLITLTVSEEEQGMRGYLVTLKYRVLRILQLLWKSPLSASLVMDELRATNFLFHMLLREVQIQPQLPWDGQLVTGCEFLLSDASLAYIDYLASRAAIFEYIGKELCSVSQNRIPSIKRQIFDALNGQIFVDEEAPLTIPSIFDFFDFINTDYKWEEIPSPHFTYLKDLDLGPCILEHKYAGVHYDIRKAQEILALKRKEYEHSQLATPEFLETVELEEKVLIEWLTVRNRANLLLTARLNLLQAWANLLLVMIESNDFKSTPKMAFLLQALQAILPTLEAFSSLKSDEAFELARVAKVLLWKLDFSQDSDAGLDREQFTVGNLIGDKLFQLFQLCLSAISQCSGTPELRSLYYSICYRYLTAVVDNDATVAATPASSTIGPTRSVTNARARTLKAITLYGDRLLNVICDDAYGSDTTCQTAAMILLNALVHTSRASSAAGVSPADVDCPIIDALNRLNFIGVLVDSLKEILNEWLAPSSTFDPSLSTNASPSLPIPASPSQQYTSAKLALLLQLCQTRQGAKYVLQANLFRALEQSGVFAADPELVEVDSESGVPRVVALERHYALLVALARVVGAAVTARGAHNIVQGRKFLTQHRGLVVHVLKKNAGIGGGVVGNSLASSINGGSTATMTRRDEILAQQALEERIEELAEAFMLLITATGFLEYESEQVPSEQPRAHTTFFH
Chain of Chaetomium thermophilum Nup188, full-length (G0SFH5 whole entry): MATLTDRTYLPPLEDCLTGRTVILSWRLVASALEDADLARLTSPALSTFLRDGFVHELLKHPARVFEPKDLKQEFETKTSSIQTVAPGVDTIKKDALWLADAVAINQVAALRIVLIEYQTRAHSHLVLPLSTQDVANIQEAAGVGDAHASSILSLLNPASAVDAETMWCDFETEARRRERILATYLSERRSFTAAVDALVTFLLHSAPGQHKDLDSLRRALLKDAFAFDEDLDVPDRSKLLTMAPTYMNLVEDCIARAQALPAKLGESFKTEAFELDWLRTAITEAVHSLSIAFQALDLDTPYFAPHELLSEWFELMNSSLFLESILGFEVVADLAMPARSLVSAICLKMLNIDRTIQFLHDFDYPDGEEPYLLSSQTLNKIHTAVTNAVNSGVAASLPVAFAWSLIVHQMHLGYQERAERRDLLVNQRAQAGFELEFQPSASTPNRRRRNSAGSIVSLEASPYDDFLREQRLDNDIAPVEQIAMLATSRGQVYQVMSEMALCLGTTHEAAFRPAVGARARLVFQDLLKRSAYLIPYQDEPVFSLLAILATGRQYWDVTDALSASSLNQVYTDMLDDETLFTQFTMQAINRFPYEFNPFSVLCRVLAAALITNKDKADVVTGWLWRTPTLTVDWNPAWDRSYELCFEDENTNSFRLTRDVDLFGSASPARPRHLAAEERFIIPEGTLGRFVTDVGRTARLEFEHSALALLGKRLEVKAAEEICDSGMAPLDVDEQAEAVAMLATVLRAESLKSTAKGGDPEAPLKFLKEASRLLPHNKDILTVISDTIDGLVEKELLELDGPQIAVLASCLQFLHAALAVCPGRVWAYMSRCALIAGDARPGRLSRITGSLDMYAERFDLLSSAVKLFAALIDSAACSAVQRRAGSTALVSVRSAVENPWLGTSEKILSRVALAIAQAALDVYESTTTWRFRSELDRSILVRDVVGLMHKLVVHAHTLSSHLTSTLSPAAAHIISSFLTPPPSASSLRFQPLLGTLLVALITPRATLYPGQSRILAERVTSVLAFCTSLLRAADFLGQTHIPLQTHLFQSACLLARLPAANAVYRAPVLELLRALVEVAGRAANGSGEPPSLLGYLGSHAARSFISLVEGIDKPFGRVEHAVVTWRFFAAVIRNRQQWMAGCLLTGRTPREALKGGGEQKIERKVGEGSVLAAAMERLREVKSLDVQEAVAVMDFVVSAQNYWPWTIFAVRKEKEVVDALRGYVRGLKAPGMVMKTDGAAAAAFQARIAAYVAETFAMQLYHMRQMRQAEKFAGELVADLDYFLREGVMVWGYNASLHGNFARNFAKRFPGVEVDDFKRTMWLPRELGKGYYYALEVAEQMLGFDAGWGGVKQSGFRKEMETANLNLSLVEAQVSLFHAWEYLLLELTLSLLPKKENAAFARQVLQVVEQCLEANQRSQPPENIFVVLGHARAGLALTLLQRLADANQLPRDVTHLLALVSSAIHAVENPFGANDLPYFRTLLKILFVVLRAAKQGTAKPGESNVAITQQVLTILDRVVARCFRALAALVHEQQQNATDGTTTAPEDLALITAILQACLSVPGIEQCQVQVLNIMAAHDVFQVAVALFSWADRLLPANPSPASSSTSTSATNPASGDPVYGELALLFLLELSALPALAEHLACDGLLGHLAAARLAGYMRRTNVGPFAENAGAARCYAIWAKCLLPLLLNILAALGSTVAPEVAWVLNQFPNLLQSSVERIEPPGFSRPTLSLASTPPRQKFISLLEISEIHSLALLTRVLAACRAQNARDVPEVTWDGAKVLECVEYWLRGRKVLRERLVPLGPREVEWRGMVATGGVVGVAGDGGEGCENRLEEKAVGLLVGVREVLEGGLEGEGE

Kd [1]: ~90 nM
Kd [2]: ~75 nM
B1: Nic96^R2 (residues 240–301) (peptide, UniProt G0S024 240-301, looked up)
chain: GTGLGEVDVDTYLSNLQTKTTLSMIADGLERSARDFDAFLEENVTLEWEAQRKRIYQHFGIK

binding result (human NUP93^SOL): binds
B2: human NUP53^R2 (residues 84–150) (peptide, UniProt Q8NFH5 84-150, looked up)
chain: DKSGAPPVRSIYDDISSPGLGSTPLTSRRQPNISVMQSPLVGVTSTPGTGQSMFSPASIGQPRKTTL

binding result (human NUP93^SOL): binds
B3: SUMO-NUP53^N (residues 1–169) (domain or fragment, human, UniProt Q8NFH5 1-169, looked up)
chain: MAAFAVEPQGPALGSEPMMLGSPTSPKPGVNAQFLPGFLMGDLPAPVTPQPRSISGPSVGVMEMRSPLLAGGSPPQPVVPAHKDKSGAPPVRSIYDDISSPGLGSTPLTSRRQPNISVMQSPLVGVTSTPGTGQSMFSPASIGQPRKTTLSPAQLDPFYTQGDSLTSED

Kd [2]: ~825 nM
B4: Chaetomium thermophilum Nup145N (natural protein, UniProt G0SAK3 1-993, looked up)
chain: MSFGFGSGGFGQNNNSSTFGGFGSTPTTNTGFGSTGTTAFGSTSNTTGGGLFGGGGGGFGSGNTFGSGFGSKPAFGTPATTSSTSLFGSTTTTAGGTGFGSGGFGSTNTSSPFGGGGTSLFGNKTTTGFGSGTSTFGSNTGGGLFGGGSTTTGFGATNNPGIGTNVGDPPGTAVVPFSPTVEKEVNNPSQSNSYQNILFMDAYKKWSAEELRLADYNQGRKTAAPGGTGAFGSSGFGGFGTTSNTGGFGSNTGGGLFGNTQQNTGGFGTTNTTGSAFGSGGGLFGNKPATGGLFGTSSSQPAQSGGLFGSGTASTFGSSNTGTTSTFGSNNNTGGGLFGSNNTSSKPAFSFGTSNTSTPGFGTATTGSGFGTGTTTNTGGGLFGNTAQNTNTGGGLFGNQQQSGSAFGSGTGFGQQNQSTGTSLFGNTQQKPGGLFGSTTTNTSGGLFGSTNTGTSTFGQTPATQNTGGGLFGSKPAGTGGLFGSTATNQPASTGGLFGNLNTNAQTQQPATGGLFGNLGQNNQAKPSLFGTSTTTGGGLFGNTNAQQQTGSLFGTSTAQQQPQTGLGASLFGSSQQQQQQPQTFSTSITDISAYGATTLFSGLPDDKIQNPGPLATPLSGKAKVKSRSILPMYKLSPANASRLVTTPQKRAYGFSFSAYGSPTSPSSSASSTPGAFGQSILSSSINRGLNKSISASNLRRSLNVEDSILQPGAFSANSSMRLLGGPGSHKKLVINKDMRTDLFSPPNKDKQPQEDGTAARKTVTKRVSFDTSNVETPEKTIESSIPATDDSGYLKPDARSTANGTNGANGAKSSPVAAASPPEMEQVKGKELAVVHEEESPAPAQTDKPRGSQIEPGAYWMSPTADDIRAMNRMQRQRVVGFTVGRENVGSVQFKVPVDLSNINLDDLFGTIVILEPRSATVYPNAAKKPPMGKGLNVPALISLEHSWPRGGPTIKGRRLERHIERLKSIPDTTFESYDPETGVWAFSVEHF

Kd [2]: ~1600 nM
B5: Nup145N^R1 (residues 616–683) (peptide, UniProt G0SAK3 616-683, looked up)
chain: ATPLSGKAKVKSRSILPMYKLSPANASRLVTTPQKRAYGFSFSAYGSPTSPSSSASSTPGAFGQSILS

Kd [1]: ~90 nM
Kd [2]: ~75 nM
B6: Nic96^187–301 (domain or fragment, Chaetomium thermophilum, UniProt G0S024 187-301, looked up)
chain: EPGKAHYFLAASGVDPGAAVRDLGALGLQAKTERTAASVGPAAGPSGVSTTGFGTGLGEVDVDTYLSNLQTKTTLSMIADGLERSARDFDAFLEENVTLEWEAQRKRIYQHFGIK
